Data taken from patent publication US20230392126A1, “TISSUE ORGANOIDS” (priority 2016, published 2023).

Columns and labels:
[1] = Cocaine hydrolysis activity in vitro (clearance assay with conditioned medium)
[2] = system: epidermal progenitor cells; assay: Suicide gene-induced cell death in epidermal progenitor cells upon prodrug treatment; format: cell-based; details: ganciclovir and 5-fluorocytosine, respectively; data not shown
Text: To test this possibility, a Rosa26 targeting vector encoding phenylalanine ammonia lyase (PAL) (SEQ ID NO: 51) together with inducible “suicide” genes HSV-TK (Herpes Simplex Virus Thymidine Kinase) (SEQ ID NO: 52) and yCD (yeast cytosine deaminase) (SEQ ID NO: 53) was used for epidermal progenitor cell transfection.

[3] = mGLP1 expression in blood/plasma of grafted mice fed dox food; format: in vivo, mouse
Description: The epidermal progenitor cells were isolated from newborn pups of CD1 or C57BL/6J mice. […] Targeted clones were selected in the medium containing puromycin, and correct incorporation into the Rosa26 locus was confirmed by PCR and southern blots (FIG. 25B). Mouse skin substitute was prepared by seeding the targeted cells to the acellularized newborn dermis and differentiation upon exposure to the air/liquid interphase and the resultant tissues were transplanted to CD1 or C57BL/6J mice (GLP1).
Expression of mGLP1 in GLP1 mice was stable for up to 4 months in the presence of dox (FIG. 25D).
There was a dose-dependent release of GLP1 in plasma (not shown). Expression of mGLP1 in mGLP1 mice was stable for up to 4 months in the presence of dox (FIG. 25D).

[4] = Ethanol-induced CPP in GLP1 and GWT mice; format: in vivo, mouse; details: 2 g/kg ethanol i.p., dox food, vs mock grafted (GWT)
Text: FIG. 26. mGLP1 expression on ethanol-induced CPP. […] Following 2 free explorations (Pre-test) on day 1, separate groups of GLP1 and GWT mice (n=9 each) received alternative ethanol (2 g/kg) and saline i.p. injections twice daily for the next 4 days, as previously described (Chen et al., Dopamine D1 and D3 receptors are differentially involved in cue-elicited cocaine seeking. J. Neurochem. 114, 530-541 (2010); Kong et al., Activation of dopamine D3 receptors inhibits reward-related learning induced by cocaine. Neurosci. 176, 152-161 (2011)). CPP expression was tested on day 6. Results represent mean±SEM time spent on the drug-paired side minus the saline-paired side. […] F value was calculated and Newman-Keuls post-hoc test was performed (Chen et al., 2010; Kong et al., 2011). […]
(§1) Following 2 free explorations (Pre-test) on day 1, separate groups of GLP1 and GWT mice (n=9 each) received alternative ethanol (2 g/kg) and saline i.p. injections twice daily for the next 4 days, as previously described (Chen et al., Dopamine D1 and D3 receptors are differentially involved in cue-elicited cocaine seeking. J. Neurochem. 114, 530-541 (2010); Kong et al., Activation of dopamine D3 receptors inhibits reward-related learning induced by cocaine. Neurosci. 176, 152-161 (2011)). […] F value was calculated and Newman-Keuls post-hoc test was performed (Chen et al., 2010; Kong et al., 2011). […]

[5] = Nicotine-induced CPP in GLP1 and GWT mice; format: in vivo, mouse; details: 0.4 mg/kg nicotine i.p., dox food, vs GWT
Description: FIG. 29 mGLP1 expression on nicotine-induced CPP. […] Following 2 free explorations (Pre-test) on day 1, separate groups of GLP1 and GWT mice (n=7 each) received alternative nicotine (0.4 mg/kg) and saline i.p. injections twice daily for the next 4 days, as previously described (Chen et al., 2010; Kong et al., 2011). CPP expression was tested on day 6. Results represent mean±SEM time spent on the drug-paired side minus the saline-paired side. Repeated-measures ANOVA with test days as the within group factor and status of grafting as the between-subject factor were used (Chen et al., 2010; Kong et al., 2011). F value was calculated and Newman-Keuls post-hoc test was performed (Chen et al., 2010; Kong et al., 2011). GLP1 and WT mice were on dox food for the entire duration.
as §1, with “mGLP1” for “GLP1”, “(n=7” for “mice (n=9”, “nicotine (0.4 mg/kg)” for “ethanol (2 g/kg)”

B1: mBChE: mouse BChE with similar point mutations (SEQ ID NO: 43) (protein)
chain: MQTQHTKVTQTHFLLWILLLCMPFGKSHTEEDFIITTKTGRVRGLSMPVLGGTVTAFLGIPYAQPPLGSLRFKKPQPLNKWPDIHNATQYANSCYQNIDQAFPGFQGSEMWNPNTNLSEDCLYLNVWIPVPKPKNATVMVWIYGGGFQTGTSSLPVYDGKFLARVERVIVVSMNYRVGALGFLAFPGNPDAPGNMGLFDQQLALQWVQRNIAAFGGNPKSITIFGESSGAASVSLHLLCPQSYPLFTRAILESGSANAPWAVKHPEEARNRTLTLAKFTGCSKENEMEMIKCLRSKDPQEILRNERFVLPSDSALGINFGPTVDGDFLTDMPHTLLQLGKVKKAQILVGVNKDEGTWFLVGGAPGFSKDNDSLITRKEFQEGLNMYFPGVSRLGKEAVLFYYVDWLGEQSPEVYRDALDDVIGDYNIICPALEFTKKFAELENNAFFYFFEHRSSKLPWPEWMGVMHGYEIEFVFGLPLGRRVNYTRAEEIFSRSIMKTWANFAKYGHPNGTQGNSTMWPVFTSTEQKYLTLNTEKSKIYSKLRAPQCQFWRLFFPKVLEMTGDIDETEQEWKAGFHRWSNYMMDWQNQFNDYTSKKESCTAL
modifications: Mouse mutant BChE
- cocaine hydrolysis activity of conditioned medium [1]: only residual activity in cocaine hydrolysis

B2: yCD: inducible suicide gene, yeast cytosine deaminase (SEQ ID NO: 53), prodrug 5-fluorocytosine (protein)
chain: MVTGGMASKWDQKGMDIAYEEAALGYKEGGVPIGGCLINNKDGSVLGRGHNMRFQKGSATLHGEISTLENCGRLEGKVYKDTTLYTTLSPCDMCTGAIIMYGIPRCVVGENVNFKSKGEKYLQTRGHEVVVVDDERCKKIMKQFIDERPQDWFEDIGE
modifications: misc_feature 1..474 yCD
- cell death upon prodrug treatment [2]: efficiently induced cell death upon treatment with prodrugs

B3: mGLP1: Gly8-mutant mGLP1 and mouse IgG-Fc fragment fusion protein (SEQ ID NO: 45), dox-dependent promoter, from skin grafts (protein)
chain: MYRMQLLSCIALSLALVTNSHGEGTFTSDVSSYLEGQAAKEFIAWLVKGRGRSGCKPCICTVPEVSSVFIFPPKPKDVLTITLTPKVTCVVVDISKDDPEVQFSWFVDDVEVHTAQTQPREEQFNSTFRSVSELPIMHQDWLNGKEFKCRVNSAAFPAPIEKTISKTKGRPKAPQVYTIPPPKEQMAKDKVSLTCMITDFFPEDITVEWQWNGQPAENYKNTQPIMDTDGSYFVYSKLNVQKSNWEAGNTFTCSVLHEGLHNHHTEKSLSHSPGK
modifications: mGLP-1 (GLY8 mutant with IgG-Fc fusion)
- time to significantly enhanced levels of mGLP1 in the blood ([3]; dox food): ≤ 3 days
- duration of stable mGLP1 expression ([3]; in the presence of dox): up to 4 months
- release of mGLP1 in plasma vs dox dose ([3]; not shown): dose-dependent release of mGLP1 in plasma
- ethanol-induced CPP [4]: attenuated ethanol-induced CPP
- nicotine-induced CPP [5]: attenuated nicotine-induced CPP
